The results in this text go back to patent US8951962B2, “Modified exendins and exendin agonists” (priority 1999, dated 2015).

No end group written: not given here. PEG = not defined here

Data set [1] can be described thus: HPLC analysis of plasma for circulating metabolites after large intravenous doses. It is filed as in vivo. The note with it: plasma of animals after large intravenous doses.
For another data set, the system named is NIH:Swiss mice. Nature of the data set: Food intake (appetite suppression) in normal mice. It is filed as in vivo. The note with it: inhibition of food intake over 30 min, intraperitoneal injection, food deprived NIH:Swiss mice.
The target in data set [2] is T1, GLP-1 receptor (RINm5f membranes) (Rattus norvegicus, UniProt P32301).
T1 construct: host or cells: RINm5f cells (membranes/homogenate)
T1 sequence (P32301 22-463): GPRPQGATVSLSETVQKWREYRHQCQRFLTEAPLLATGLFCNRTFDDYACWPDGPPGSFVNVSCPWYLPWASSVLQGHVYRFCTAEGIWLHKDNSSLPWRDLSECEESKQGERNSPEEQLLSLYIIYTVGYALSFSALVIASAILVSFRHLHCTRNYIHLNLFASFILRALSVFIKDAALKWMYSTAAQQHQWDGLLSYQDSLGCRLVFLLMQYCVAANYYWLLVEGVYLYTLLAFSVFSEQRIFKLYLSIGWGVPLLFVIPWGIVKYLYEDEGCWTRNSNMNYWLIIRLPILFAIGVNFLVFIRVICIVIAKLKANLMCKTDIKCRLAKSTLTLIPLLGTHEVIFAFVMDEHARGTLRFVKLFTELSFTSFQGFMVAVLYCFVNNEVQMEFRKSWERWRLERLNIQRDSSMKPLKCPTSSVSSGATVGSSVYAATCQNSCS
Nature of the data set: Cyclase activation study (GLP-1 Cyclase), cAMP SPA immunoassay on RINm5f membranes. It is filed as biochemical. Particulars: read-out: GLP-1 Cyclase EC50, 20 minutes at 37° C., supernatant cAMP. As for the experimental part:
All other peptides were prepared using synthesis methods such as those described herein. All chemicals were of the highest commercial grade. The cAMP SPA immunoassay was purchased from Amersham. The radioligands were purchased from New England Nuclear (Boston, Mass.). RINm5f cells (American Type Tissue Collection, Rockville, Md.) were grown in DME/F12 medium containing 10% fetal bovine serum and 2 mM L-glutamine. […] Cells were grown to confluence then harvested and homogenized using on a Polytron homogenizer. Cell homogenates were stored frozen at −70° C. until used.
Membranes and peptides was combined in […] of assay buffer in 96 well filter-bottom plates (Millipore Corp., Bedford, Mass.). After 20 minutes incubation at 37° C., the assay was terminated by transfer of supernatant by filtration into a fresh 96 well plate using a Millipore vacuum manifold. Supernatant cAMP contents were quantitated by SPA immunoassay. Peptide samples were run in the assay as triplicate points at 7 dilutions over a concentration range of 10^−6M to 10^−12M to generate response curves. The biological activity of a particular sample was expressed as an EC50 value calculated as described above.

Method for NIH:Swiss mice: All mice (NIH:Swiss mice) were housed in a stable environment of 22 (±2)° C., 60 (±10) % humidity and a 12:12 light:dark cycle; with lights on at 0600. […] All experiments were conducted between the hours of 0700 and 0900.

Take GLP-1 [7-36]NH2: in data set [1], the “plasma circulating metabolites (HPLC)” value is reported as “subpeptide degradants”. Regarding “HGEGTFTSDLSRQMEEAVRLFIEWLRNGGPSSGAPPPK(PEG)-NH2 (reading uncertain; also: printed as HGEGTFTSDLSRQMEEAVRLFIEWLRNGGPSSGAPPPK(PEG)-NH2) [compound 229]”, the “Appetite Suppression ED50” value in the data set with NIH:Swiss mice was 14.50 µg/kg. Besides, the EC50 in data set [2] was found to be 60.4 nM. In the same order, the values of “HGEGTFTSDLSRQMEEEAVRLFIEWLRNGK(PEG)PSSGAPPPS-NH2 [224] (not fully specified; PEG linker; C-terminal amide) [compound 224]” are “weak” and 3.22 nM.

As for “HGEGTFTSDLSRQMEEEAVRLFIEWLRNGK(PEG)PSSGAPPPS-NH2 [230] (not fully specified; PEG linker; C-terminal amide) [compound 230]”, the concentration giving a half-maximal response (EC50) in data set [2] worked out at 157 nM.

In the case of “amylin: peptide hormone studied for comparison of plasma degradation (KCNTATCATQRLANFLVHSSNNFGAILSSTNVGSNTY; Islet amyloid polypeptide; UniProt P10997 34-70, looked up)”, the “plasma circulating metabolites (HPLC)” value in data set [1] is listed as “subpeptide degradants”.

As a reminder, the EC50 is the concentration that produces a half-maximal response.
